Measured values taken from patent publication US12493026B2, “Tissue engineered 3D models for cancer metastasis” (The Board of Trustees of the Leland Stanford Junior …, priority 2019, dated 2025).

Key:
tissue engineered bone [1] = assay: Breast cancer-induced bone resorption in 3D tri-culture model of osteoclasts, osteoblasts and breast cancer cells (μCT); type: cell-based; conditions: 14 days
Protocol: In order to assess the effect of breast cancer in promoting osteoclast activation and bone resorption, the bone mineral density of (1) tissue engineered bone alone (No BrCa), (2) tissue engineered bone+MDA-MB-231 breast cancer cells, and (3) tissue engineered bone+MCF-7 breast cancer cells were evaluated. Tissue engineered bone was developed as described previously. After 28 days in osteogenic media, a 2 mm diameter disk was cut out from the center of tissue engineered bone, leaving an empty hole in the center. Prior to introducing breast cancer cells, 1 million osteoclasts were seeded directly over tissue engineered bone and incubated for 1 hour to allow cells to attach. […] Bone mineralization was monitored using X-ray microcomputed tomography (GE CT120) with setting of 100 kV X-ray voltage, 500 μA current, 50 μm voxel resolution and continuous 360° rotation scanning. Reconstructed 3D μCT images were analyzed for changes in bone mineral density using Parallax Microview.
Validation was performed of a 3D tri-culture model that includes osteoclasts, osteoblasts, and breast cancer cells to mimic clinical outcomes effects of parathyroid hormone treatment on breast cancer patients.
Compared to the bi-culture model earlier (osteoblasts+breast cancer cells), this tri-culture model involves additional osteoclasts seeded on top of the scaffolds. […]

[2] = system: MDA-MB-231 breast cancer cells; assay: Breast cancer cell invasion into tissue engineered bone in spatially patterned 3D coculture (fluorescence imaging); type: cell-based; conditions: 1 μg/mL PTH for 6 hours every 48 hours; MDA-MB-231 coculture, 7 days; FIG. 7(A)
Source text: To mimic the microanatomical structures of breast cancer invasion into bone through bone marrow/long bone interface (FIGS. 1A and 1B), a “doughnut shape” 3D co-culture model was developed with mesenchymal stem cell (MSC)-formed tissue engineered bone in the outside ring, and breast cancer cells in the center (FIG. 1C). To facilitate imaging the two cell populations, human MSCs were fluorescently labelled red and breast cancer cells were labeled green (GFP). Gelatin μRBs were synthesized as previously reported. Freeze-dried μRBs were rehydrated in PBS containing 0.05% lithium phenyl-2,4,6-trimethylbenzoylphosphinate photoinitiator. […] Breast cancer invasion into tissue engineered bone was monitored using fluorescence imaging at the interface between the outer and inner disks.
Cocultures of MDA-MB-231 and tissue engineered bone were developed as previously described. […] Breast cancer cell invasion into tissue-engineered bone was monitored using fluorescence microscopy every other day for 7 days. Bone mineralization was monitored using X-ray microcomputed tomography (GE CT120) with setting of 100 kV X-ray voltage, 500 μA current, 50 μm voxel resolution and continuous 360° rotation scanning. Reconstructed 3D μCT images were analyzed for changes in bone mineral density using Parallax Microview. […]

[3] = system: MDA-MB-231 breast cancer cells; assay: Breast cancer cell proliferation in 3D coculture (bioluminescence imaging); type: cell-based; conditions: 1 μg/mL PTH for 6 hours every 48 hours, FIG. 7(B)
Source text: To evaluate the effect of breast cancer cell aggressiveness in their invasion rate into bone, MDA-MB-231 breast cancer cells (more aggressive) were compared to MCF-7 breast cancer cells (less aggressive). Tissue engineered bone was generated as described previously. MDA-MB-231 and MCF-7 breast cancer cells were encapsulated into gelatin μRBs forming 2 mm diameter disks, which were introduced into the center of tissue-engineered bone and placed in EMEM growth media for 7 days. Breast cancer invasion into all groups was performed using fluorescence imaging at the interface between the outer and inner disks over 7 days. Cell proliferation was tracked over the culture period using bioluminescence imaging.
Cocultures of MDA-MB-231 and tissue engineered bone were developed as previously described. Upon starting the coculture, scaffolds were treated with 1 μg/mL of parathyroid hormone (PTH) or PBS control for 6 hours every 48 hours. Breast cancer cell invasion into tissue-engineered bone was monitored using fluorescence microscopy every other day for 7 days. Bone mineralization was monitored using X-ray microcomputed tomography (GE CT120) with setting of 100 kV X-ray voltage, 500 μA current, 50 μm voxel resolution and continuous 360° rotation scanning. Reconstructed 3D μCT images were analyzed for changes in bone mineral density using Parallax Microview. […]

[4] = system: breast cancer cell-bone metastasis; conditions: mouse models; cited from earlier work
hMSC-derived osteoblasts = assay: Osteoblast cell proliferation/survival in 3D coculture (bioluminescence imaging); type: cell-based, human; conditions: 1 μg/mL PTH for 6 hours every 48 hours, FIG. 8(A)
Protocol: (§1) Cocultures of MDA-MB-231 and tissue engineered bone were developed as previously described. Upon starting the coculture, scaffolds were treated with 1 μg/mL of parathyroid hormone (PTH) or PBS control for 6 hours every 48 hours. Breast cancer cell invasion into tissue-engineered bone was monitored using fluorescence microscopy every other day for 7 days. Bone mineralization was monitored using X-ray microcomputed tomography (GE CT120) with setting of 100 kV X-ray voltage, 500 μA current, 50 μm voxel resolution and continuous 360° rotation scanning. Reconstructed 3D μCT images were analyzed for changes in bone mineral density using Parallax Microview. Osteoblast cell proliferation was tracked over the culture period using bioluminescence imaging.

tissue engineered bone [5] = assay: Bone mineral density of tissue engineered bone in 3D coculture (μCT); type: cell-based, human; conditions: 1 μg/mL PTH for 6 hours every 48 hours, FIG. 8(C)
Protocol: Bone mineral density was evaluated over 14 days by comparing tissue engineered bone cultured with (+BrCa) and without (−BrCa) breast cancer cells. Cocultures of tissue engineered bone with MDA-MB-231 were generated as described previously and cultured in EMEM GM for 14 days. Bone mineralization was monitored using X-ray microcomputed tomography (GE CT120) with setting of 100 kV X-ray voltage, 500 μA current, 50 μm voxel resolution and continuous 360° rotation scanning. Reconstructed 3D μCT images will be analyzed for changes in bone mineral density using Parallax Microview.
as §1

B1: parathyroid hormone (protein, UniProt P01270 32-115, looked up)
Parathyroid hormone: SVSEIQLMHNLGKHLNSMERVEWLRKKLQDVHNFVALGAPLAPRDAGSQRPRKKEDNVLVESHEKSLGEADKADVNVLTKAKSQ
modifications: Parathyroid hormone
notes: parathyroid hormone; drug that reduces breast cancer-bone metastasis in vivo
breast cancer-induced bone resorption (bone loss) (tissue engineered bone [1]; continuous PTH treatment (cPTH)): does not reduce
breast cancer-induced bone resorption (bone loss) (tissue engineered bone [1]; intermittent PTH treatment (iPTH)): can reduce
breast cancer cell invasion into tissue engineered bone [2]: significantly reduces
breast cancer cell proliferation [3]: does not impact
breast cancer cell-bone metastasis [4]: specifically reduce
osteoblast cell survival in the presence of breast cancer invasion (hMSC-derived osteoblasts): enhances
breast cancer cell-induced reduction in bone mineralization (bone mineral density) (tissue engineered bone [5]): prevents
